Assay results as given in US5077204A, “Yeast endopeptidase for basic amino-acid site cleavage, preparation and use” (Chiron Corporation, priority 1988, dated 1991).

What was measured:
[1] = tested on: human proinsulin (alpha-factor leader-proinsulin fusion); assay: Processing of proinsulin in yeast transformed with KEX2 containing vectors; assay type: cell-based, yeast strains AB109 and AB103.1; settings: yeast transformed with pYBCA5-KEX2 versus pYBCA5; cleavage between alpha-factor leader and proinsulin, B/C and C/A junctions
From the text: Plasmids containing proinsulin and KEX2 genes (pYBCA5-KEX2 or pYBCA5-KEX4) or control plasmids with only proinsulin sequences (pYBCA5) or no insert (pCl/1) were used to transform kex2^- mutant yeast strain AB109 (Matα, kex2-1, ade2-1, his^-, leu2-3,112, trpl^-289, ura3-25 ura3-52, (KIL-k), cir° ) or KEX2^+ yeast strain AB103.1 (matα, pep4-3, leu2-3, leu2-112, ura3-52, his4-580, cir° ) following the procedure of Hinnen et al., Proc. Natl. Acad. Sci. USA (1978) 75:1929-1933. Transformants were grown in a low sulfate medium (LSM) containing 0.1 mM (NH4)2 SO4 until mid-exponential phase (OD660 nm 1-3), collected by centrifugation and resuspended in LSM containing 0.25 mCi of carrier free [ ^35 S]SO4^2- at an OD660 =2. After 10 min incubation, a 50-fold excess of (NH4)2 SO4 was added and cells were further incubated for 15-30 min. After centrifugation, proteins present in the cell free extract were precipitated with 12% trichloroacetic acid, 0.5 mg/ml deoxycholate. The precipitate was resuspended, reduced and alkylated and submitted to protein acrylamide gel electrophoresis (Laemmli, Nature (1970) 227:680). Gels were fixed, fluorographed, dried and exposed to Kodak XAR-5 film at -70° C.

[2] = biological target: T1, KEX2 endopeptidase (kex2[YEp24-pJ2B] membranes) (Saccharomyces cerevisiae, UniProt P13134); assay: Endopeptidase activity in membranes from kex2 cells carrying multicopy plasmid pJ2B (over-produced specific endopeptidase); assay type: biochemical, S. cerevisiae
T1 construct: not only includes the KEX2 gene, but also the necessary transcriptional and translational regulatory signals for expression in yeast; expressed in transfected cells; host or cells: S. cerevisiae XBH16-15A (MATalpha kex2-1) carrying YEp24-pJ2B
T1 sequence (P13134 114-814): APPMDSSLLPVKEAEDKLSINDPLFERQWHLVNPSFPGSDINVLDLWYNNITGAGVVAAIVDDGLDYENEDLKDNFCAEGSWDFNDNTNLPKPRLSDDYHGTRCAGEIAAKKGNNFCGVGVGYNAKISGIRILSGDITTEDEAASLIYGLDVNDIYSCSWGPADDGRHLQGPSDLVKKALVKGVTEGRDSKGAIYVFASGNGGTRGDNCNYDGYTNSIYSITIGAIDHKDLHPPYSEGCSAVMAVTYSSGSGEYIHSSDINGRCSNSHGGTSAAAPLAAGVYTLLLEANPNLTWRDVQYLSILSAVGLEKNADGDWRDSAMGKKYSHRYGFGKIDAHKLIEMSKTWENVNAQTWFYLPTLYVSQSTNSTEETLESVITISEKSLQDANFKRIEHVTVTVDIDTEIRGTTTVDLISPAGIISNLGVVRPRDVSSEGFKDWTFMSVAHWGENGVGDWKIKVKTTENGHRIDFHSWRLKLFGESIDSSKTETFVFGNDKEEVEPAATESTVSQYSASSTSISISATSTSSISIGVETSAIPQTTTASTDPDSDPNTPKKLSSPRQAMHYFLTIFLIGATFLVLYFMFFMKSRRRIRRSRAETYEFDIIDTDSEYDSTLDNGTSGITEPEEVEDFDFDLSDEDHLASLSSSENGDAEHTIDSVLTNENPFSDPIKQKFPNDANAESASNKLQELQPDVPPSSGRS
Protocol: Permeabilization of whole yeast cells with the non-ionic detergent Brij 58, preparation of crude membrane fractions, and measurement of protein concentration were conducted by the methods described previously (Julius et al., 1983, supra), incorporated herein by reference. To measure peptidase activity, samples of permeabilized cells or membrane material were added to a reaction mixture containing 0.1-0.5 mM fluorogenic peptide substrate (added from a 20 mM stock dissolved in DMSO) and 200 mM HEPES-Tris (pH 7.0), in a final volume of 0.4 ml. Following incubation for 30 min at 37° C., whole cells were removed by centrifugation in a microfuge (Eppendorf) and membrane material was removed by Ba(OH)2 -ZnSO4 precipitation. The amount of fluorescence formed in the supernatant solution was determined in a fluorescence spectrophotometer (Perkin-Elmer, Model MPF-44B), set either at an excitation wavelength of 335 nm and an emission wavelength of 410 nm (for measurement of β-naphthylamine) or at an excitation wavelength of 380 nm and an emission wavelength of 460 nm (for measurement of 7-amino-4-methyl-coumarin, AMC). To determine the number of moles of substrate hydrolyzed, the fluorescence yield of samples was compared to a standard curve prepared with known concentrations of authentic AMC dissolved in the same buffer.
Cells of strain XBH1615A that had been transformed with the plasmids
indicated, or that contained pJ2B in integrated form, were grown in SCUra
and membranes were prepared as described in the Experimental.
Endopeptidase activity was assayed as described in the Experimental. All
substrates tested were present at 0.1 mM.
Endopeptidase activity was assayed using Boc--GlnArgArg--MCA as the
substrate, as outlined in the Experimental. All inhibitors were added fro
a 0.1 M stock dissolved in dimethyl sulfoxide.

B1: KEX2 endopeptidase: yeast endopeptidase, product of the KEX2 gene, cleaving on the carboxyl side of a pair of basic amino acids (protein, UniProt P13134 114-814, looked up)
Kexin: APPMDSSLLPVKEAEDKLSINDPLFERQWHLVNPSFPGSDINVLDLWYNNITGAGVVAAIVDDGLDYENEDLKDNFCAEGSWDFNDNTNLPKPRLSDDYHGTRCAGEIAAKKGNNFCGVGVGYNAKISGIRILSGDITTEDEAASLIYGLDVNDIYSCSWGPADDGRHLQGPSDLVKKALVKGVTEGRDSKGAIYVFASGNGGTRGDNCNYDGYTNSIYSITIGAIDHKDLHPPYSEGCSAVMAVTYSSGSGEYIHSSDINGRCSNSHGGTSAAAPLAAGVYTLLLEANPNLTWRDVQYLSILSAVGLEKNADGDWRDSAMGKKYSHRYGFGKIDAHKLIEMSKTWENVNAQTWFYLPTLYVSQSTNSTEETLESVITISEKSLQDANFKRIEHVTVTVDIDTEIRGTTTVDLISPAGIISNLGVVRPRDVSSEGFKDWTFMSVAHWGENGVGDWKIKVKTTENGHRIDFHSWRLKLFGESIDSSKTETFVFGNDKEEVEPAATESTVSQYSASSTSISISATSTSSISIGVETSAIPQTTTASTDPDSDPNTPKKLSSPRQAMHYFLTIFLIGATFLVLYFMFFMKSRRRIRRSRAETYEFDIIDTDSEYDSTLDNGTSGITEPEEVEDFDFDLSDEDHLASLSSSENGDAEHTIDSVLTNENPFSDPIKQKFPNDANAESASNKLQELQPDVPPSSGRS
- Processing of proinsulin (autoradiography of secreted insulin-related bands) [1]: able to process proinsulin at specific cleavage sites
- pH optimum [2]: 7.0-7.5
- Activity at pH 5.0 ([2]; pH 5.0): little activity detected
- Activity at pH 8.5 ([2]; pH 8.5): about half-maximal activity
